Test results taken from article doi:10.1101/2022.06.11.495734 (bioRxiv, 2022).

Tests used:
non-reducing SDS-PAGE = target: the molecule itself; test: non-reducing SDS-PAGE
native gel or EMSA = target: the molecule itself; test: native gel or EMSA
[1] = target: the molecule itself; test: SDS-PAGE after LAFS treatment
[2] = target: the molecule itself; test: reducing SDS-PAGE and immunoblot of parasite lysate

B1: recombinant Plasmodium falciparum 3D7 60S stalk ribosomal protein P2, 6x His-tag (natural protein, UniProt O00806 1-112, looked up)
chain: MAMKYVAAYLMCVLGGNENPSTKEVKNVLGAVNADVEDEVLNNFIDSLKGKSCHELITDGLKKLQNIGGGVAAAPAGAAAVETAEAKKEDKKEEKKEEEEEEEDDLGFSLFG
- stoichiometry N (non-reducing SDS-PAGE): 2
- stoichiometry N (native gel or EMSA): 4

B2: rec.PfP2 pre-reduced and alkylated with iodoacetamide (natural protein, Plasmodium falciparum 3D7, UniProt O00806 1-112, looked up)
chain: MAMKYVAAYLMCVLGGNENPSTKEVKNVLGAVNADVEDEVLNNFIDSLKGKSCHELITDGLKKLQNIGGGVAAAPAGAAAVETAEAKKEDKKEEKKEEEEEEEDDLGFSLFG
modifications: all cysteine residues pre-reduced and alkylated with Iodoacetamide (IAA)
- stoichiometry N [1]: 4

B3: Plasmodium falciparum P2 protein, endogenous in wild type 3D7 parasites (natural protein, UniProt O00806 1-112, looked up)
chain: MAMKYVAAYLMCVLGGNENPSTKEVKNVLGAVNADVEDEVLNNFIDSLKGKSCHELITDGLKKLQNIGGGVAAAPAGAAAVETAEAKKEDKKEEKKEEEEEEEDDLGFSLFG
- stoichiometry N [2]: 4

B4: PfP2-HA of transgenic P. falciparum 3D7 parasites (natural protein, Plasmodium falciparum 3D7, UniProt O00806 1-112, looked up)
chain: MAMKYVAAYLMCVLGGNENPSTKEVKNVLGAVNADVEDEVLNNFIDSLKGKSCHELITDGLKKLQNIGGGVAAAPAGAAAVETAEAKKEDKKEEKKEEEEEEEDDLGFSLFG
- stoichiometry N [2]: 4
